{"source": "patent US7052898B2", "about": "“Thermostable isomerase and use hereof, in particular for producing tagatose” (Bioneer A/S, priority 2001, dated 2006)", "key": {"[1]": {"test_system": "Mycobacterium smegmatis L-arabinose isomerase", "settings": "read-out: Km for L-arabinose; Reference 6: J. Bacteriol. 133: 413-414 (1978); cited from earlier work"}, "[2]": {"test_system": "Lactobacillus gayonii L-arabinose isomerase", "settings": "read-out: Km for L-arabinose; Reference 5: Nakamatu and Yamanaka (1969); cited from earlier work"}, "[3]": {"test_system": "Escherichia coli L-arabinose isomerase", "settings": "read-out: Km for L-arabinose; Reference 3: Patrick and Lee (1968); cited from earlier work"}, "[4]": {"test_system": "Lactobacillus plantarum L-arabinose isomerase", "settings": "read-out: Km for L-arabinose; Reference 4: Heath et al. (1958); cited from earlier work"}, "[5]": {"test_system": "Aerobacter aerogenes L-arabinose isomerase", "settings": "read-out: Km for L-arabinose; Reference 1: Yamanaka and Wood (1966); cited from earlier work"}, "[6]": {"test_system": "L-arabinose isomerase from T. mathranii", "test": "Metal ion requirement: reactivation of EDTA-dialysed enzyme", "type": "biochemical, Thermoanaerobacter mathranii", "settings": "enzyme previously dialysed against 5 mM EDTA, metal salt added", "description": "(§1) Enzyme sample, 10-50 μl, was mixed with 950 μl of assay reagent and incubated at 65° C. for 60 min."}, "[7]": {"settings": "cited from earlier work"}, "[8]": {"substrate": "OC1OC[C@H](O)[C@H](O)[C@H]1O", "test": "purified protein, by the assay type", "settings": "other: apparent Km; T. mathranii enzyme produced in E. coli; pH 6.9; 65.0 °C"}, "[9]": {"test": "Substrate specificity: D-fucose colour response relative to L-arabinose", "type": "biochemical", "settings": "0.5 M D-fucose, cysteine-carbazol-sulfuric acid method", "description": "as §1\n(§2) The obtained concentrations of the ketoses L-ribulose, D-tagatose or D-fuculose, respectively, were determined by the cysteine-carbazol-sulfuric acid method (Dische, Z. and Borenfreund, E. (1951) J. Biol. Chem. 192: 583-587). Samples were incubated at room temperature for 60 min and the absorbance at 560 nm was measured in a microplate reader. Standard curves showing the colour response of 0-5 mM ketose were made with D-tagatose and D-ribulose, since L-ribulose was not commercially available. (No standard curve was obtained for D-fuculose which was not commercially available.)"}, "[10]": {"test": "Substrate specificity: D-galactose activity relative to L-arabinose activity", "type": "biochemical", "settings": "molar ratio of keto-sugar, substrate 0.5 M, pH 6.9, 65° C.", "description": "as §1, §2\nThe ratio was calculated from the cysteine-carbazol-sulfuric acid colour responses and the standard curves generated with ribulose and tagatose, respectively."}, "[11]": {"test": "Bioconversion of D-galactose to D-tagatose with free enzyme", "type": "biochemical", "settings": "65° C.", "description": "as §2\nControl samples without enzyme were treated similarly. Periodically, samples were taken and the concentration of D-tagatose was determined by the cystein-carbazol-sulfuric acid method as described above. The results are shown in Table 2.2A (30% D-galactose) and 2.2B (60% D-galactose)."}, "[12]": {"test": "pH dependence, D-galactose assay", "type": "biochemical", "settings": "D-galactose assays at pH 4, 5, 6, 7, 8 and 9", "description": "as §1, §2\nThe buffer used for these assays was a mixture of 25 mM acetic acid, 25 mM 2-[N-morpholino]ethanesulfonic acid (MES), 5 mM MnCl2, and 25 mM tris[hydroxymethyl]-aminomethane (TRIS), which was titrated with HCl or NaOH."}, "[13]": {"test": "Temperature dependence, D-galactose assay", "type": "biochemical", "settings": "temperature range of about 60-75° C.", "description": "as §1, §2"}, "[14]": {"test": "Substrate specificity: other aldo-hexoses, aldo-pentoses and deoxy-sugar", "type": "biochemical", "description": "as §1, §2"}, "[15]": {"settings": "end-product inhibition; cited from earlier work"}, "[16]": {"settings": "initial D-galactose 30% (1.67 M), pH 6.9, 0 h"}, "[17]": {"settings": "initial D-galactose 30% (1.67 M), pH 6.9, 24 h"}, "[18]": {"settings": "initial D-galactose 30% (1.67 M), pH 6.9, 48 h"}, "[19]": {"settings": "initial D-galactose 30% (1.67 M), pH 6.9, 72 h"}, "[20]": {"settings": "initial D-galactose 60% (3.33 M), pH 6.9, 0 h"}, "[21]": {"settings": "initial D-galactose 60% (3.33 M), pH 6.9, 24 h"}, "[22]": {"settings": "initial D-galactose 60% (3.33 M), pH 6.9, 48 h"}, "[23]": {"settings": "initial D-galactose 60% (3.33 M), pH 6.9, 72 h"}}, "note": "Like-named read-outs stand apart in the source and are kept apart here."}
{"molecule": "OC1OC[C@H](O)[C@H](O)[C@H]1O", "note": "(stereo partly drawn) [L-arabinose]", "values": [{"measurement": "Km", "setting": "[1]", "value": "~30", "unit": "mM"}, {"measurement": "Km", "setting": "[2]", "value": 55, "unit": "mM"}, {"measurement": "Km", "setting": "[3]", "value": 60, "unit": "mM"}, {"measurement": "Km", "setting": "[4]", "value": 28, "unit": "mM"}, {"measurement": "Km", "setting": "[5]", "value": 33, "unit": "mM"}]}
{"molecule": "[Cl][Mn][Cl]", "note": "[MnCl2]", "values": [{"measurement": "restored L-arabinose isomerase activity", "setting": "[6]", "value": 100, "unit": "%"}]}
{"molecule": "O=S(=O)([O-])[O-].[Fe+2]", "note": "[FeSO4]", "values": [{"measurement": "restored L-arabinose isomerase activity", "setting": "[6]", "value": 76, "unit": "%"}]}
{"molecule": "Lactobacillus plantarum", "values": [{"measurement": "amount of ketose at equilibrium", "setting": "[7]; 10° C.", "value": 10, "unit": "%"}, {"measurement": "amount of ketose at equilibrium", "setting": "[7]; 25° C.", "value": 14, "unit": "%"}, {"measurement": "amount of ketose at equilibrium", "setting": "[7]; 53° C.", "value": 16, "unit": "%"}]}
{"molecule": "Thermoanaerobacter mathranii DSMZ 11426 L-arabinose isomerase (AraA), wild type, SEQ ID NO:2, produced in E. coli (Thermoanaerobacter mathranii subsp. … (protein) MQTKKKPQIGFLGIMQELYDDMLPGITERQEKYAREVIEQLQDVADFHFPKAAKNRQDIEHIVKEFNEKDLDGIMIVMLTYGPATNIVNALRNNKLPIMLANIQPVPTVTEDWDMGDLTYNQGVHGAQDTANAILRMGIKCPIITEEWHSEEFKKFVGDWAKAVQTIKALRNMKIAQFGRMHGMYDILGDDAAFTRKIGPQINQEYIGEVYRYMETATEEEINAVIEENRKNFYIDPNLSEESHRYAARLQIGFKKFLINKGYDGFTAHFDVFKGDGRFKQIPMMAASNLMAEGYGYAAEGDAVTASLVAAGHVLIGDAHFTEMYAMDFKRNSILMSHMGEGNWKIARKDRPIKLIDRELGIGKLDNPPTIVFMAQPGPATLVSLVSLEGERYRLVVSKGEILDTEEAKYIEMPYFHFRPSTGVKACLDGWLTNGGTHHECLNLGDNTRRWKILCNLLDIEYVEV", "values": [{"measurement": "Km", "setting": "[8]", "value": "80 mM and ˜80 mM"}]}
{"molecule": "L-arabinose isomerase from T. mathranii: L-arabinose isomerase (araA gene product, 465 amino acid residues) of Thermoanaerobacter mathranii DSMZ 11426 produced in E. coli; used as cell extract (protein, Thermoanaerobacter matrahnii, araA sequence, used as cell extract) MQTKKKPQIGFLGIMQELYDDMLPGITERQEKYAREVIEQLQDVADFHFPKAAKNRQDIEHIVKEFNEKDLDGIMIVMLTYGPATNIVNALRNNKLPIMLANIQPVPTVTEDWDMGDLTYNQGVHGAQDTANAILRMGIKCPIITEEWHSEEFKKFVGDWAKAVQTIKALRNMKIAQFGRMHGMYDILGDDAAFTRKIGPQINQEYIGEVYRYMETATEEEINAVIEENRKNFYIDPNLSEESHRYAARLQIGFKKFLINKGYDGFTAHFDVFKGDGRFKQIPMMAASNLMAEGYGYAAEGDAVTASLVAAGHVLIGDAHFTEMYAMDFKRNSILMSHMGEGNWKIARKDRPIKLIDRELGIGKLDNPPTIVFMAQPGPATLVSLVSLEGERYRLVVSKGEILDTEEAKYIEMPYFHFRPSTGVKACLDGWLTNGGTHHECLNLGDNTRRWKILCNLLDIEYVEV", "values": [{"measurement": "colour response with D-fucose as percent of the response with L-arabinose", "setting": "[9]", "value": 46, "unit": "%"}, {"measurement": "D-galactose activity as percent of the L-arabinose activity", "setting": "[10]", "value": 21, "unit": "%"}, {"measurement": "Conc. of D-tagatose", "setting": "[11]; [16]", "value": 0, "unit": "mM"}, {"measurement": "Percent bioconversion", "setting": "[11]; [16]", "value": 0}, {"measurement": "Conc. of D-tagatose", "setting": "[11]; [17]", "value": 427, "unit": "mM"}, {"measurement": "Percent bioconversion", "setting": "[11]; [17]", "value": 25}, {"measurement": "Conc. of D-tagatose", "setting": "[11]; [18]", "value": 450, "unit": "mM"}, {"measurement": "Percent bioconversion", "setting": "[11]; [18]", "value": 26}, {"measurement": "Conc. of D-tagatose", "setting": "[11]; [19]", "value": 422, "unit": "mM"}, {"measurement": "Percent bioconversion", "setting": "[11]; [19]", "value": 25}, {"measurement": "Conc. of D-tagatose", "setting": "[11]; [20]", "value": 0, "unit": "mM"}, {"measurement": "Percent bioconversion", "setting": "[11]; [20]", "value": 0}, {"measurement": "Conc. of D-tagatose", "setting": "[11]; [21]", "value": 462, "unit": "mM"}, {"measurement": "Percent bioconversion", "setting": "[11]; [21]", "value": 14}, {"measurement": "Conc. of D-tagatose", "setting": "[11]; [22]", "value": 542, "unit": "mM"}, {"measurement": "Percent bioconversion", "setting": "[11]; [22]", "value": 16}, {"measurement": "Conc. of D-tagatose", "setting": "[11]; [23]", "value": 622, "unit": "mM"}, {"measurement": "Percent bioconversion", "setting": "[11]; [23]", "value": 19}, {"measurement": "pH of highest activity", "setting": "[12]", "value": 8}, {"measurement": "share of the maximum activity retained", "setting": "[13]", "value": "≥ 70", "unit": "%"}, {"measurement": "enzyme activity with D-arabinose", "setting": "[14]; substrate D-arabinose", "value": "No significant enzyme activity"}, {"measurement": "enzyme activity with D-glucose", "setting": "[14]; substrate D-glucose", "value": "No significant enzyme activity"}, {"measurement": "enzyme activity with D-mannose", "setting": "[14]; substrate D-mannose", "value": "No significant enzyme activity"}, {"measurement": "enzyme activity with D-ribose", "setting": "[14]; substrate D-ribose", "value": "No significant enzyme activity"}, {"measurement": "enzyme activity with D-xylose", "setting": "[14]; substrate D-xylose", "value": "No significant enzyme activity"}, {"measurement": "enzyme activity with L-fucose", "setting": "[14]; substrate L-fucose", "value": "No significant enzyme activity"}, {"measurement": "enzyme activity with L-ribose", "setting": "[14]; substrate L-ribose", "value": "No significant enzyme activity"}]}
{"molecule": "β-glycosidase from Sulfolobus solfataricus: extremely thermostable β-glycosidase from the thermoacidophilic archaeon Sulfolobus solfataricus, used as lactase (protein, UniProt P22498 1-489, looked up) Beta-galactosidase: MYSFPNSFRFGWSQAGFQSEMGTPGSEDPNTDWYKWVHDPENMAAGLVSGDLPENGPGYWGNYKTFHDNAQKMGLKIARLNVEWSRIFPNPLPRPQNFDESKQDVTEVEINENELKRLDEYANKDALNHYREIFKDLKSRGLYFILNMYHWPLPLWLHDPIRVRRGDFTGPSGWLSTRTVYEFARFSAYIAWKFDDLVDEYSTMNEPNVVGGLGYVGVKSGFPPGYLSFELSRRAMYNIIQAHARAYDGIKSVSKKPVGIIYANSSFQPLTDKDMEAVEMAENDNRWWFFDAIIRGEITRGNEKIVRDDLKGRLDWIGVNYYTRTVVKRTEKGYVSLGGYGHGCERNSVSLAGLPTSDFGWEFFPEGLYDVLTKYWNRYHLYMYVTENGIADDADYQRPYYLVSHVYQVHRAINSGADVRGYLHWSLADNYEWASGFSMRFGLLKVDYNTKRLYWRPSALVYREIATNGAITDEIEHLNSVPPVKPLRH", "values": [{"measurement": "inhibition by galactose", "setting": "[15]", "value": "not to be inhibited"}, {"measurement": "inhibition by glucose", "setting": "[15]", "value": "only moderately inhibited"}]}
